Patent publication US20160237162A1

Tests used:
[1] = target: human HER3 on human cancer cells (human) (UniProt P21860)
[2] = target: human HER3 on human cancer cells (human) (UniProt P21860); assay: cell-based or functional assay
[3] = target: human HER3 on human cancer cells (human) (UniProt P21860); remark: listed apart in the source
[4] = target: human HER3 on human cancer cells (human) (UniProt P21860); remark: listed apart in the source
[5] = target: human HER3 on human cancer cells (human) (UniProt P21860); remark: listed apart in the source
[6] = target: human HER3 on human cancer cells (human) (UniProt P21860); remark: listed apart in the source
[7] = target: human HER3 on human cancer cells (human) (UniProt P21860); remark: listed apart in the source
[8] = target: human HER3 on human cancer cells (human) (UniProt P21860); remark: listed apart in the source
[9] = target: human HER3 on human cancer cells (human) (UniProt P21860); remark: listed apart in the source
[10] = target: human HER3 on human cancer cells (human) (UniProt P21860); remark: listed apart in the source
[11] = target: human HER3 on human cancer cells (human) (UniProt P21860); remark: listed apart in the source
[12] = target: human HER3 on human cancer cells (human) (UniProt P21860); remark: listed apart in the source

AMG anti-HER3 monoclonal antibody (U1-59)
IC50; suppression of pHER3 (pHER3 ELISA), EGFR-TKI (gefitinib)-resistant HCC827 cells [1]: 31 ng/ml | Maximum inhibition %; suppression of pHER3 (pHER3 ELISA), EGFR-TKI (gefitinib)-resistant HCC827 cells [1]: 24% | fold decrease in pHER3 ELISA in HCC827 cells; potency against 2C2 [2]: 10 fold | pHER3 ELISA in Kato III cells, maximal pHER3 suppression [2]: 60% | IC50; suppression of pAKT (Meso-Scale Discovery assay), BT-474 cells [3]: > 10 µg/ml | Max inhibition%; suppression of pAKT (Meso-Scale Discovery assay), BT-474 cells [3]: 1% | IC50; suppression of pHER3 (pHER3 ELISA), BT-474 cells [4]: > 10 µg/ml | IC50; suppression of pHER3 (pHER3 ELISA), HCC827 cells [5]: 23 ng/ml | Maximum inhibition %; suppression of pHER3 (pHER3 ELISA), HCC827 cells [5]: 41% | IC50; suppression of HRG-induced pHER3 (pHER3 ELISA), MCF-7 cells [6]: 33 ng/ml | Maximum inhibition %; suppression of HRG-induced pHER3 (pHER3 ELISA), MCF-7 cells [6]: 77% | IC50; suppression of pHER3 (pHER3 ELISA), MKN45 cells [7]: 16.1 ng/ml | Maximum inhibition %; suppression of pHER3 (pHER3 ELISA), MKN45 cells [7]: 58% | IC50; suppression of pAKT (Meso-Scale Discovery assay), Kato III cells [8]: 6.2 ng/ml | Maximum inhibition %; suppression of pAKT (Meso-Scale Discovery assay), Kato III cells [8]: 22% | IC50; growth suppression (CellTiter-Glo, 6 days), HMCB melanoma cells [9]: 1.73 µg/mL | IC50; suppression of pAKT (Meso-Scale Discovery assay), MKN45 cells [10]: 15.8 ng/ml | Maximum inhibition %; suppression of pAKT (Meso-Scale Discovery assay), MKN45 cells [10]: 38% | IC50; suppression of pHER3 (pHER3 ELISA), Kato III cells [11]: 9.6 ng/ml | Maximum inhibition %; suppression of pHER3 (pHER3 ELISA), Kato III cells [11]: 62% | IC50; growth suppression (CellTiter-Glo, 6 days), MDA-MB-175 cells [12]: 0.99 µg/mL | Maximum inhibition %; growth suppression (CellTiter-Glo, 6 days), MDA-MB-175 cells [12]: 39%
